A short description of the data set: protein stability index of a GFP-peptide fusion (GPS, HEK-293T) (PSI 1-6); higher = more stable. The following applies: c terminus: a fixed tail appended.

± gives the standard deviation.
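Further: 24-mer peptide tiles fused after GFP, lentivirally expressed, FACS-sorted into six equal bins by GFP/DsRed ratio, decoded by Illumina sequencing, PSI is the read-weighted mean bin number.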

Regarding DEVARRWGKRKNKPKMNYEKLSRG [ETS2], the protein stability index is 4.11 ± 0.35 (treatment: DMSO) and 4.31 ± 0.52 (treatment: MLN4924 1 uM, 8 h).
For SVKLRALRSPRKFGVAGRSCQEVL [DFFB], in that order: 2.73 ± 0.34 and 3.01 ± 0.54.
Consider DGEEIPVQKNILAAASPYIRTKLN [GAN], for which the protein stability index came to 4.13 ± 0.33 (treatment: DMSO) and 4.32 ± 0.28 (treatment: MLN4924 1 uM, 8 h).
For VSIMYLVLVLAVQVHAWQLYYSKK [JAGN1] the same measures were 2.98 ± 0.67 and 3.27 ± 0.16.
For SLFIALITGAYDTIKHPGGAGAEE [MCOLN1] the same measures were 2.45 ± 0.58 and 2.2 ± 0.44.
For QMELLLVNKLKWNLAAMTPHDFIE [CCND1] the same measures were 2.91 ± 0.6 and 2.71 ± 0.5.
As to GTASSGSSRLPQPSGAGKTVVGVP [ZC2HC1A], the protein stability index is, setting by setting: (treatment: DMSO) 4.74 ± 0.41; (treatment: MLN4924 1 uM, 8 h) 4.72 ± 0.12.
For FTCDEENVFAAVGRGLYVYSLQMK [WDR41], in that order: 2.57 ± 0.56 and 2.38 ± 0.093.
For FVTYVFFVFFVLLNMFLAIINDTY [PKD2L1] the same measures were 2.3 ± 0.47 and 2.26 ± 0.45.
For YSKTWTKQPDLTMVRKIGCYAAMK [GAN] the same measures were 2.92 ± 0.96 and 2.42 ± 0.19.
Turning to PTRNDLESGLGHFSLRVHTGCHKK, the protein stability index runs as follows: (treatment: DMSO) 4.06 ± 0.18; (treatment: MLN4924 1 uM, 8 h) 4.11 ± 0.18.
For GATTLGDMIYVSGGFDGSRRHTSM [KLHL12], in that order: 2.88 ± 0.38 and 3.02 ± 0.5.
For GTEEKKKLIRDFDEKQQEANETLA [VTI1B], in that order: 5.57 ± 0.22 and 5.51 ± 0.15.
As for QDPLKFYKKIYFCHSCQLYLPSTE [IQUB], the protein stability index is, setting by setting: (treatment: DMSO) 1.94 ± 0.41; (treatment: MLN4924 1 uM, 8 h) 2.12 ± 0.66.
For CDPGTDPCPEDASTPRPPEASSSP [TLE6], in that order: 5.61 ± 0.26 and 5.58 ± 0.28.
For QEVPHEGPMCDLLWSDPDDRGGWG [PPP2CA] the same measures were 4.39 ± 0.32 and 4.61 ± 0.2.
For the sequence GVNPDQVEKIRKLPNTLLRKDKDV [ANKRD40], the protein stability index is 4.63 ± 0.35 (treatment: DMSO) and 4.73 ± 0.26 (treatment: MLN4924 1 uM, 8 h).
For the sequence PRNGDQWHEIRQGRLPRIPQVLSQ [WEE1], the protein stability index came to 3.12 ± 0.17 (treatment: DMSO) and 3.32 ± 0.5 (treatment: MLN4924 1 uM, 8 h).
For PVGRSWHSLTPVSSDHLFLFGGFT [KLHDC2] the same measures were 2.3 ± 0.53 and 1.87 ± 0.096.
For IEDLRAQIFANTVDNARIVLQIDN [KRT18] the same measures were 2.6 ± 0.24 and 2.67 ± 0.35.
For MDNYADLSDTELTTLLRRYNIPHG [EMD], in that order: 3.19 ± 0.11 and 3.37 ± 0.15.
On to AMELKVEDPFYWVSPGVLVLLAVL [MOG], for which the protein stability index reads like this: (treatment: DMSO) 2.8 ± 0.94; (treatment: MLN4924 1 uM, 8 h) 2.55 ± 0.34.
For VNSTLKELRRLFLVQDLVDSLKFA [RTN1] the same measures were 2.44 ± 0.27 and 2.4 ± 0.23.
For QPSQQQQPPPQEEPGTPSSSPDDK [KLHL14], in that order: 5.6 ± 0.26 and 5.59 ± 0.15.
For APELVERVQSVDFMRTDPVCQKLL [KLHL14] the same measures were 3.85 ± 0.36 and 4.12 ± 0.2.
In the case of KRYSMYLTPKGGVRTSYQPSSPGR [TRIM29], the protein stability index was found to be 3.15 ± 0.28 (treatment: DMSO) and 3.37 ± 0.41 (treatment: MLN4924 1 uM, 8 h).
For PPLRNYFLEEDNYKNIKRPPGDIM [USP39], in that order: 3.19 ± 0.19 and 3.37 ± 0.17.
In the case of DSSEKELEPEAAEEALENGPKESL [ACBD3], the protein stability index reads like this: (treatment: DMSO) 5.62 ± 0.24; (treatment: MLN4924 1 uM, 8 h) 5.55 ± 0.22.
For DDYTSAIEVQPNFEVPYYNRGLIL [TTC32] the same measures were 2.4 ± 0.45 and 2.42 ± 0.38.
In the case of TQELVAIKIIKNKKAFLNQAQIEL [DYRK1B], the protein stability index is, setting by setting: (treatment: DMSO) 2.18 ± 0.27; (treatment: MLN4924 1 uM, 8 h) 2.17 ± 0.3.
For GDHRSPASAQKFSSRSTVPTPAKR [NET1], in that order: 4.75 ± 0.38 and 5.05 ± 0.23.
For AQEKAADVQARLNRSDHGIFHSRT [FCHSD1], the protein stability index is, setting by setting: (treatment: DMSO) 4.19 ± 0.072; (treatment: MLN4924 1 uM, 8 h) 4.37 ± 0.48.
For LLLLLLASLLPSARLASPLPREEE [ADAMTS4], in that order: 2.56 ± 0.07 and 3.08 ± 0.55.
For ERPWIKRMIFKLFSQETVMKFVPR [APMAP], in that order: 2.71 ± 0.75 and 2.48 ± 1.1.
For RCRLSLDDRVLSSLVRDTIARVHG [POP5], in that order: 2.29 ± 0.25 and 2.35 ± 0.27.
Take PSLSPGSSCVKYLIFLSNFPFSLL [TSPAN10]: the protein stability index was found to be 2.8 ± 0.85 (treatment: DMSO) and 2.83 ± 0.6 (treatment: MLN4924 1 uM, 8 h).
With DASVQPGPFRTLLQFLYTGQLDEK [RHOBTB1], the protein stability index (treatment: DMSO) is 2.51 ± 0.33 and the protein stability index (treatment: MLN4924 1 uM, 8 h) is 2.72 ± 0.3.
For YSAIDRVKSRGKRLALEKVPKVGQ [PI4K2A] the same measures were 4.04 ± 0.33 and 4.12 ± 0.27.
For CRKFPRDMKAMSPENQEYFEKHRW [RHOBTB2], in that order: 3.22 ± 0.2 and 3.18 ± 0.29.
For PDGGRADEWACELRLFGRVLERAA [P3H4], in that order: 2.46 ± 0.3 and 2.62 ± 0.38.
Regarding PPARPRPRSPECRMIPGQPPASAR [IRX6], the protein stability index by setting is: (treatment: DMSO) 4.95 ± 0.21; (treatment: MLN4924 1 uM, 8 h) 4.9 ± 0.12.
For LRFSGVNDTDFRVYLLGNPVVWWL [POMT2] the same measures were 2.85 ± 0.43 and 2.96 ± 0.6.
For HYAFRIFDFDDDGTLNREDLSRLV [CIB1] the same measures were 2.55 ± 0.24 and 2.78 ± 0.31.
For FQEAQIKRKARNEGRNRRRQQVLP [CDKL4] the same measures were 3.79 ± 0.54 and 4.08 ± 0.14.
For FKLADPDEVARRWGKRKNKPKMNY [ETS2], the protein stability index runs as follows: (treatment: DMSO) 3.48 ± 0.48; (treatment: MLN4924 1 uM, 8 h) 3.67 ± 0.13.
In the case of EESEKAMQERVQRLEAARLSLEEE [LRRC45], the protein stability index (treatment: DMSO) is 5.48 ± 0.2 and the protein stability index (treatment: MLN4924 1 uM, 8 h) stood at 5.57 ± 0.091.
For PREHHGRGGMLSASAETLPAGFRV [PPFIA4], in that order: 3.5 ± 0.44 and 3.95 ± 0.076.
For AEWLLAVRSIQPEEKERIGQFVFA [AASDHPPT], in that order: 2.29 ± 0.15 and 2.13 ± 0.18.
In turn, LTEIYRIVSQKQIADRAAHDESPG [RAB11B] showed a protein stability index (treatment: DMSO) of 3.52 ± 0.12 and a protein stability index (treatment: MLN4924 1 uM, 8 h) of 3.52 ± 0.27.
In turn, TLGEQGLPHQSHRQRSSLAKINIV [SCNN1D] gave a protein stability index (treatment: DMSO) of 3.27 ± 0.28 and a protein stability index (treatment: MLN4924 1 uM, 8 h) of 3.33 ± 0.1.
For QAEVLSRQITSPVSGINGDIRAKK [HNF4A], in that order: 5.05 ± 0.22 and 5.09 ± 0.036.
For HESEGGRTPLMKAARAGHVCTVQF [ANKRD17] the same measures were 2.71 ± 0.28 and 2.6 ± 0.33.
In the case of LIPLANTGIVNHTHSRMGSIMSTG [CARM1], the protein stability index is, setting by setting: (treatment: DMSO) 2.59 ± 0.12; (treatment: MLN4924 1 uM, 8 h) 2.47 ± 0.14.
For VEVDESEPYPSQLLKPIPEYSPEE [TRAF3IP2] the same measures were 5.48 ± 0.44 and 5.46 ± 0.35.
For CNGILTEKMEEEEQTCDPDSSLHW [ZNF396], in that order: 5.13 ± 0.18 and 5.01 ± 0.28.
For AGPAFDSDPEISDVDEDEPGGLVG [PPFIA4], in that order: 5.19 ± 0.56 and 5.77 ± 0.07.
Regarding HETESTSDKETDIDDRYGDLDSRT [CDS1], the protein stability index was found to be 5.42 ± 0.19 (treatment: DMSO) and 5.6 ± 0.22 (treatment: MLN4924 1 uM, 8 h).
As to GGRDFSAPLTISRVHAGSKAALAA [PDLIM4], the protein stability index is, setting by setting: (treatment: DMSO) 3.59 ± 0.24; (treatment: MLN4924 1 uM, 8 h) 3.85 ± 0.27.
In the case of RTADEATNTGPAGSSASTSPAPLD [DYRK1B], the protein stability index (treatment: DMSO) is 5.5 ± 0.28 and the protein stability index (treatment: MLN4924 1 uM, 8 h) came out at 5.34 ± 0.21.
For DSDENSKPSVDTEGPALVEIDRSV [MIA2], in that order: 5.16 ± 0.78 and 5.29 ± 0.56.
For RMRYLNGLDPEPLPLMDLCRRSVR [SPSB1], in that order: 3.21 ± 0.27 and 3.36 ± 0.1.
Regarding KSLEWSPWNCILLTKDEAAAHLKL [IQUB], the protein stability index was determined as 2.41 ± 0.22 (treatment: DMSO) and 2.56 ± 0.11 (treatment: MLN4924 1 uM, 8 h).
The sequence KEIESQGSIPGFLISSGMSSHKQG [TAF7L] returned a protein stability index (treatment: DMSO) of 4.42 ± 0.2 and a protein stability index (treatment: MLN4924 1 uM, 8 h) of 4.11 ± 0.48.
For TQIEDATEKLKANAESSKTWLKGK [TRIM14] the same measures were 4.95 ± 0.37 and 5 ± 0.18.
Consider SPVTENSTSLSFLDSCNSLTPKST [MYBL2], for which the protein stability index by setting is: (treatment: DMSO) 4.91 ± 0.15; (treatment: MLN4924 1 uM, 8 h) 4.77 ± 0.14.
For AHEIERLQMEMKEDDVSFLMKHKS [TRIM35] the same measures were 4.83 ± 0.24 and 4.67 ± 0.25.
For LLMVRASRRSGKTSAVLKAGRQSV [C6orf223], in that order: 2.63 ± 0.17 and 2.85 ± 0.19.
IMLRSNESFTMDDMSWTCGNQDYK [VDR]: the protein stability index was found to be 2.86 ± 0.12 (treatment: DMSO) and 2.61 ± 0.27 (treatment: MLN4924 1 uM, 8 h).
For GSSETNLLQHLLEACGRCEEVPEA [PYCR3] the same measures were 3.74 ± 0.19 and 4.19 ± 0.14.
For SYLMDHFIPSSHNDRDFLTRIFTE [PPEF2] the same measures were 2.5 ± 0.19 and 2.51 ± 0.28.
For EADINGLRRVLDELTLSKTDLEMQ [KRT13] the same measures were 4.32 ± 0.079 and 4.26 ± 0.3.
On to RGNRLKTTSWGLLSLGALVALCWQ [SCNN1D], for which the protein stability index runs as follows: (treatment: DMSO) 2.3 ± 0.26; (treatment: MLN4924 1 uM, 8 h) 2.16 ± 0.24.
For VGESVEEAFYYIHNLVVACEIQVR [ADD1], in that order: 2.79 ± 0.37 and 2.91 ± 0.72.

The values are drawn from the supplement of paper PMC10567573.
